Residue numbers refer to the chain shown, from its start. Values belong to the binder of their own block, whether it stands above or below them.
Legend:
[1] = target: T1, CTLA-4-hFc (immunogen A; hFc-labeled CTLA-4 extracellular domain protein) (human, UniProt P16410 36-161); test: blocking assay, CTLA-4 protein, competitor B7.1
T1 construct: range 36-161; Made in HEK293 cells, purified on protein A; also called CLTA-4-hFc; CTLA-4 protein; not shown: human IgG Fc fragment (hFc) of the pCpC vector
T1 sequence (looked up): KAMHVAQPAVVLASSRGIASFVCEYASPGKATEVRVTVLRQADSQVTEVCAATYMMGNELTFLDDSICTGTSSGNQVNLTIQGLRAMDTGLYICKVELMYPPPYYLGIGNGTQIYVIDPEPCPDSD
Protocol: (§1) CTLA-4 extracellular domain protein (CTLA-4-hFc) was diluted with PBS to a final concentration of 1.0 μg/mL, and then added to a 96-well ELISA plate as 100 μl per well. The plate was covered with a plastic film and incubated overnight at 4° C. The plate was washed twice with plate washing solution [PBS containing 0.01% (v/v) Tween 20] on the next day, and added with blocking solution [PBS containing 0.01% (v/v) Tween 20 and 1% (w/w) BSA] and blocked at room temperature for 2 hours. […] After 2 hours, the plate was washed 3 times with a plate washing solution [PBS containing 0.01% (v/v) Tween 20]. HRP (horseradish peroxidase) labeled avidin diluent (purchased from Sigma) was added 100 microliters per well, and after the plate was incubated for 2 hours at 37° C., it was washed with plate washing solution [PBS containing 0.01% (v/v) Tween 20] for 3 times. […] TMB substrate was added to each well. After incubated at room temperature for 30 minutes, the plate was added with […] stop solution (1.0N HCl) to each well. An ELISA plate reader (SpectraMax 384plus, Molecular Device) was used to read the A450 nm value.

[2] = target: T2, human CTLA-4 (Y201V), full length, on transfected cells (human, UniProt P16410 36-223); test: FACS, human CTLA-4 expressing cells
T2 construct: whole, on cells; also called hCTLA-4; HEK293-hCTLA-4 (Y201V)
T2 sequence (looked up): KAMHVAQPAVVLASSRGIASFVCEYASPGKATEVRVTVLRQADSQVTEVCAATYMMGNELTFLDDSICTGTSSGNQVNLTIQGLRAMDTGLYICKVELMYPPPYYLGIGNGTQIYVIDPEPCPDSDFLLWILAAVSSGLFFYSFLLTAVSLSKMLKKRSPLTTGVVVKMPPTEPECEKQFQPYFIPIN

[3] = target: T1, CTLA-4-hFc (immunogen A; hFc-labeled …); test: blocking assay, CTLA-4 protein, competitor B7.2
Protocol: as §1

[4] = target: T1, CTLA-4-hFc (immunogen A; hFc-labeled …); test: receptor-ligand blocking assay: CTLA-4 protein, antibody titrated, blocked ligand B7.1, inhibition (%)
Protocol: as §1

[5] = target: T3, CTLA-4 on human T lymphocytes (PBMC, CD3+ T cells) (human, UniProt P16410 36-223); test: cell-based or functional assay
T3 sequence (looked up): T2 sequence (looked up) with V166Y

[6] = target: T4, recombinant His-labeled hCTLA-4 ECD protein (human, UniProt P16410 36-161); test: SPR Biacore T200, antibody captured by anti-human Fc, 1:1 model
T4 construct: extracellular domain; also called human CTLA-4 ECD; not shown: His label
T4 sequence (looked up): T1 sequence (looked up)
Protocol: Anti-human Fc IgG was fixed on flow cell 1 and 2. HBS-EP+ (10 mmol/L HEPES, 150 mmol/L NaCl, 3 mM EDTA, 0.05% P20, pH 7.4) was used as the running buffer, and anti-human Fc IgG was fixed using the fixing wizard template. The flow cells 1 and 2 connected in series with S CM5 sensor chip were activated with freshly mixed 50 mmol/L NHS and 200 mmol/L EDC. Anti-human Fc IgG was diluted to […] with 10 mmol/L NaAC (pH 4.5) and injected into activated flow cells 1 and 2. The remaining active coupling sites were blocked with 1 mol/L ethanolamine.
The recombinant His-labeled hCTLA-4 ECD protein was diluted to 50 nmol/L, and then serially diluted 4 times with HBS-EP+ buffer at a 2-fold ratio. […] Each antibody was injected into the CM5 sensor flow cell 2 at a flow rate of 10 μL/min to achieve a response of 230 RU. Then the prepared His-labeled hCTLA-4ECD protein was injected into flow cells 1 and 2 at a flow rate of 30 μL/min for 180 seconds. The buffer flow was maintained for 400 seconds for dissociation measurement (30 μL/min). To remove the tested antibody from the surface, 10 mmol/L glycine-HCl pH1.5 was injected for 20 seconds (30 μL/min). Flow cell 1 was used as a reference flow cell. The above steps were repeated for each concentration of serially diluted His-labeled CTLA-4ECD protein. The KD value of each antibody was evaluated using Biacore T200 evaluation software 1.0, and a 1:1 binding model was used to fit the data.

% Block at 0.000128 nM [1]: 0% | % Block at 0.0128 nM [1]: 9.3% | % Block at 0.064 nM [1]: 35% | % Block at 0.32 nM [1]: 82.1% | % Block at 1.6 nM [1]: 98.1% | % Block at 8 nM [1]: 99.2% | % Block at 40 nM [1]: 99.4% | % Block at 200 nM [1]: 99.4% | MFI at 0.000128 nM [2]: 3 | MFI at 0.0128 nM [2]: 24 | MFI at 0.064 nM [2]: 74 | MFI at 0.32 nM [2]: 233 | MFI at 1.6 nM [2]: 553 | MFI at 8 nM [2]: 795 | MFI at 40 nM [2]: 967 | MFI at 200 nM [2]: 963 | % Block at 0.000128 nM [3]: 0% | % Block at 0.0128 nM [3]: 30% | % Block at 0.064 nM [3]: 52.4% | % Block at 0.32 nM [3]: 89.2% | % Block at 1.6 nM [3]: 99.1% | % Block at 8 nM [3]: 99.1% | % Block at 40 nM [3]: 99.1% | % Block at 200 nM [3]: 99.1% | IC50 (read off the curve) [4]: ~1 nM | IL-2 secretion, pg/ml, at 0.13 ug/ml, N = 1 [5]: 2140 pg/mL | IL-2 secretion, pg/ml, at 0.13 ug/ml, N = 2 [5]: 1830 pg/mL | IL-2 secretion, pg/ml, at 0.37 ug/ml, N = 1 [5]: 2370 pg/mL | IL-2 secretion, pg/ml, at 0.37 ug/ml, N = 2 [5]: 2160 pg/mL | IL-2 secretion, pg/ml, at 1.1 ug/ml, N = 1 [5]: 3200 pg/mL | IL-2 secretion, pg/ml, at 1.1 ug/ml, N = 2 [5]: 3010 pg/mL | IL-2 secretion, pg/ml, at 3.3 ug/ml, N = 1 [5]: 3770 pg/mL | IL-2 secretion, pg/ml, at 3.3 ug/ml, N = 2 [5]: 3620 pg/mL | IL-2 secretion, pg/ml, at 10 ug/ml, N = 1 [5]: 5270 pg/mL | IL-2 secretion, pg/ml, at 10 ug/ml, N = 2 [5]: 4810 pg/mL | IL-2 secretion, pg/ml, at 30 ug/ml, N = 1 [5]: 6840 pg/mL | IL-2 secretion, pg/ml, at 30 ug/ml, N = 2 [5]: 7410 pg/mL | Kd [6]: 2.36 nM | koff [6]: 0.0017 s⁻¹ | kon [6]: 720000 M⁻¹ s⁻¹
B1: 40C4C6 fully human CTLA-4 antibody (human IgG1, kappa) (antibody, V domains shown)
VH: QVQLVESGGGVVQPGRSLRLSCAASGFTFSSYGMHWVRQAPGKGLEWVAVIWYDGRNKYYADSVKGRFTISRDNSKNTLYLQMNSLRAEDTAVYYCARASGSYSYYFDYWGQGTLVTVSS
VL: DIQMTQSPSSLSASVGGRVTITCRASQSISSFLNWYQHELGKAPKLLIYGASSLQSGVPSRFSGSGSGTDFTLTISSLQPEDFATYYCQQTYSTPFTFGPGTKVDIK
notes: also called mAb09; mAb009

% Block at 0.000128 nM [1]: 0% | % Block at 0.0128 nM [1]: 6.1% | % Block at 0.064 nM [1]: 28.7% | % Block at 0.32 nM [1]: 67.8% | % Block at 1.6 nM [1]: 90.6% | % Block at 8 nM [1]: 95.2% | % Block at 40 nM [1]: 97.2% | % Block at 200 nM [1]: 98.4% | MFI at 0.000128 nM [2]: 3 | MFI at 0.0128 nM [2]: 22 | MFI at 0.064 nM [2]: 66 | MFI at 0.32 nM [2]: 196 | MFI at 1.6 nM [2]: 580 | MFI at 8 nM [2]: 919 | MFI at 40 nM [2]: 1020 | MFI at 200 nM [2]: 1020 | % Block at 0.000128 nM [3]: 0% | % Block at 0.0128 nM [3]: 33% | % Block at 0.064 nM [3]: 48.4% | % Block at 0.32 nM [3]: 84.1% | % Block at 1.6 nM [3]: 99% | % Block at 8 nM [3]: 99.2% | % Block at 40 nM [3]: 99.2% | % Block at 200 nM [3]: 99.2% | IL-2 secretion, pg/ml, at 0.13 ug/ml, N = 1 [5]: 1520 pg/mL | IL-2 secretion, pg/ml, at 0.13 ug/ml, N = 2 [5]: 1500 pg/mL | IL-2 secretion, pg/ml, at 0.37 ug/ml, N = 1 [5]: 2110 pg/mL | IL-2 secretion, pg/ml, at 0.37 ug/ml, N = 2 [5]: 1960 pg/mL | IL-2 secretion, pg/ml, at 1.1 ug/ml, N = 1 [5]: 2660 pg/mL | IL-2 secretion, pg/ml, at 1.1 ug/ml, N = 2 [5]: 2610 pg/mL | IL-2 secretion, pg/ml, at 3.3 ug/ml, N = 1 [5]: 4660 pg/mL | IL-2 secretion, pg/ml, at 3.3 ug/ml, N = 2 [5]: 3330 pg/mL | IL-2 secretion, pg/ml, at 10 ug/ml, N = 1 [5]: 5080 pg/mL | IL-2 secretion, pg/ml, at 10 ug/ml, N = 2 [5]: 5560 pg/mL | IL-2 secretion, pg/ml, at 30 ug/ml, N = 1 [5]: 6090 pg/mL | IL-2 secretion, pg/ml, at 30 ug/ml, N = 2 [5]: 7540 pg/mL | Kd [6]: 2.15 nM | koff [6]: 0.00087 s⁻¹ | kon [6]: 405000 M⁻¹ s⁻¹
B2: 97A8D1 fully human CTLA-4 antibody (human IgG1, kappa) (antibody, V domains shown)
VH: QVQLVESGGGVVQPGRSLRLSCVASGFTFNNYGMNWVRQAPGKGLEWVAVIWYGGRNKFYADSVKGRFTISRDNSKNTLYLEMNSLRAEDTAVYYCARADWGGWFDPWGQGTLVTVSS
VL: EIVLTQSPGTLSLSPGERATLSCRASQSVSSTYLAWYQQKPGQAPRLLIHGAFSRATGIPDRFSGSGSGPDFTLTISRLEPEDFAVYYCQQYGTSPFTFGPGTKVDIK
notes: also called mAb49; mAb049

Source: patent US20210324080A1 (JIANGSU HUAIYU PHARMACEUTICAL, published 2021)
